Molecular target: T1, EsCas13d, nuclease-dead (Eubacterium siraeum, UniProt B0MS50, R295A;H300A;R849A;H854A)
T1 sequence: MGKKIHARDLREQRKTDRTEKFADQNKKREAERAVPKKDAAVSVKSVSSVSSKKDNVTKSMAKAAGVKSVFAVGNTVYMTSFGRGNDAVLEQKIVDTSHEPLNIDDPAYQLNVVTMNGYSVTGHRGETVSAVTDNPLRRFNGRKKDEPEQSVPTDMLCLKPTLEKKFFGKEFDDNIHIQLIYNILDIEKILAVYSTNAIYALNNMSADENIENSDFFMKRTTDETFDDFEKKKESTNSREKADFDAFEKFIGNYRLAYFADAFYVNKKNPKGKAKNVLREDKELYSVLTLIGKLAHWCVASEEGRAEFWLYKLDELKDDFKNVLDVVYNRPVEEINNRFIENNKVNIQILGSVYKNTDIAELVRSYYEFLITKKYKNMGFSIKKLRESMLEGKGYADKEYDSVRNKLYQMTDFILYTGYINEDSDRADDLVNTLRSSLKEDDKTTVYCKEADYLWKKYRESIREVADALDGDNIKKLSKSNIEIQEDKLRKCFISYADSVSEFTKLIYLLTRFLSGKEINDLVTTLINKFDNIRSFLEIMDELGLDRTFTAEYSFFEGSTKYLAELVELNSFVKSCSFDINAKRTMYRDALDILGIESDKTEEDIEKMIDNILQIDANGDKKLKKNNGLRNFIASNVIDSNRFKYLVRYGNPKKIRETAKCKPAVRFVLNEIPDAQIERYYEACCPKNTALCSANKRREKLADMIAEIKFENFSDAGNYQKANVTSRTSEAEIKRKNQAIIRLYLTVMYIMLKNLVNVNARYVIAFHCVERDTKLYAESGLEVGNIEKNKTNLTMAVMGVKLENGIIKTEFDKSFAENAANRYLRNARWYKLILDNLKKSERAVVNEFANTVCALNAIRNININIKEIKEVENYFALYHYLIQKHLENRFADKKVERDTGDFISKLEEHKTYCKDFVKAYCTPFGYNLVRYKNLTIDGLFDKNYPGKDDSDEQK
Assay: crRNA (strand 1, pre-loaded); Mg2+; 40 mM Tris-HCl pH 7.5, 150 mM NaCl, 6 mM MgCl2, 1 mM DTT, 0.1% Tween-20, 0.2 mg/ml BSA; 25 C; 10 min per concentration, then washed
Conditions: tags: His6-TwinStrep-SUMO cleaved; N-terminal SNAP kept (SNAP-Surface 488); label: 3' end held by stalled T7 RNA polymerase

B1: target 3 C1G,G4C (mixed)
RNA 1: CACCCGUGCAAAAUUGCAGGGGUCUAAAACGACCUGAAUAUUUCAGAUCAAA
RNA 2: GGGAAUGGAUCCACAUCUACGAAUUCGUUUUUGAUCUGAAAUAUUCACGUGUGCAGAUCGGAAGAGCACACGU
- Kd: 16.8 ± 3.25 nM

B2: target 3 insA 3' of 7,insC 3' of 3 (mixed)
RNA 1: CACCCGUGCAAAAUUGCAGGGGUCUAAAACGACCUGAAUAUUUCAGAUCAAA
RNA 2: GGGAAUGGAUCCACAUCUACGAAUUCGUUUUUGAUCUGAAAUAUUACAGGCUCUGCAGAUCGGAAGAGCACACGU
- Kd: 26.1 ± 2.35 nM

B3: target 3 insU 3' of 16,insG 3' of 1 (mixed)
RNA 1: CACCCGUGCAAAAUUGCAGGGGUCUAAAACGACCUGAAUAUUUCAGAUCAAA
RNA 2: GGGAAUGGAUCCACAUCUACGAAUUCGUUUUUGAUCUUGAAAUAUUCAGGUCGUGCAGAUCGGAAGAGCACACGU
- Kd: 45.5 ± 11.5 nM

B4: target 3 G3C,A12G (mixed)
RNA 1: CACCCGUGCAAAAUUGCAGGGGUCUAAAACGACCUGAAUAUUUCAGAUCAAA
RNA 2: GGGAAUGGAUCCACAUCUACGAAUUCGUUUUUGAUCUGAGAUAUUCAGCUCUGCAGAUCGGAAGAGCACACGU
- Kd: 100 ± 33 nM

B5: target 3 insG 3' of 6,insC 3' of 3 (mixed)
RNA 1: CACCCGUGCAAAAUUGCAGGGGUCUAAAACGACCUGAAUAUUUCAGAUCAAA
RNA 2: GGGAAUGGAUCCACAUCUACGAAUUCGUUUUUGAUCUGAAAUAUUCGAGGCUCUGCAGAUCGGAAGAGCACACGU
- Kd: 17.5 ± 1.3 nM

B6: target 3 insG 3' of 7,insA 3' of 3 (mixed)
RNA 1: CACCCGUGCAAAAUUGCAGGGGUCUAAAACGACCUGAAUAUUUCAGAUCAAA
RNA 2: GGGAAUGGAUCCACAUCUACGAAUUCGUUUUUGAUCUGAAAUAUUGCAGGAUCUGCAGAUCGGAAGAGCACACGU
- Kd: 38 ± 5.5 nM

B7: target 3 insA 3' of 22,insC 3' of 3 (mixed)
RNA 1: CACCCGUGCAAAAUUGCAGGGGUCUAAAACGACCUGAAUAUUUCAGAUCAAA
RNA 2: GGGAAUGGAUCCACAUCUACGAAUUCGUUUAUUGAUCUGAAAUAUUCAGGCUCUGCAGAUCGGAAGAGCACACGU
- Kd: 15.1 ± 1.55 nM

B8: target 3 C1U,U7G (mixed)
RNA 1: CACCCGUGCAAAAUUGCAGGGGUCUAAAACGACCUGAAUAUUUCAGAUCAAA
RNA 2: GGGAAUGGAUCCACAUCUACGAAUUCGUUUUUGAUCUGAAAUAUGCAGGUUUGCAGAUCGGAAGAGCACACGU
- Kd: ~40 nM

B9: target 3 insC 3' of 22,insU 3' of 4 (mixed)
RNA 1: CACCCGUGCAAAAUUGCAGGGGUCUAAAACGACCUGAAUAUUUCAGAUCAAA
RNA 2: GGGAAUGGAUCCACAUCUACGAAUUCGUUUCUUGAUCUGAAAUAUUCAGUGUCUGCAGAUCGGAAGAGCACACGU
- Kd: 8.75 ± 2.3 nM

B10: target 3 insA 3' of 10 (mixed)
RNA 1: CACCCGUGCAAAAUUGCAGGGGUCUAAAACGACCUGAAUAUUUCAGAUCAAA
RNA 2: GGGAAUGGAUCCACAUCUACGAAUUCGUUUUUGAUCUGAAAUAAUUCAGGUCUGCAGAUCGGAAGAGCACACGU
- Kd: 55.5 ± 13 nM

B11: target 3 C6G (mixed)
RNA 1: CACCCGUGCAAAAUUGCAGGGGUCUAAAACGACCUGAAUAUUUCAGAUCAAA
RNA 2: GGGAAUGGAUCCACAUCUACGAAUUCGUUUUUGAUCUGAAAUAUUGAGGUCUGCAGAUCGGAAGAGCACACGU
- Kd: 20.4 ± 2.3 nM

B12: target 3 U7C,U22A (mixed)
RNA 1: CACCCGUGCAAAAUUGCAGGGGUCUAAAACGACCUGAAUAUUUCAGAUCAAA
RNA 2: GGGAAUGGAUCCACAUCUACGAAUUCGUUAUUGAUCUGAAAUAUCCAGGUCUGCAGAUCGGAAGAGCACACGU
- Kd: 88.5 ± 21.5 nM

B13: target 3 C1U,G4C (mixed)
RNA 1: CACCCGUGCAAAAUUGCAGGGGUCUAAAACGACCUGAAUAUUUCAGAUCAAA
RNA 2: GGGAAUGGAUCCACAUCUACGAAUUCGUUUUUGAUCUGAAAUAUUCACGUUUGCAGAUCGGAAGAGCACACGU
- Kd: ~68.5 nM

B14: target 3 insU 3' of 3,insG 3' of 1 (mixed)
RNA 1: CACCCGUGCAAAAUUGCAGGGGUCUAAAACGACCUGAAUAUUUCAGAUCAAA
RNA 2: GGGAAUGGAUCCACAUCUACGAAUUCGUUUUUGAUCUGAAAUAUUCAGGUUCGUGCAGAUCGGAAGAGCACACGU
- Kd: 37.4 ± 4.85 nM

B15: target 3 insA 3' of 4,insG 3' of 2 (mixed)
RNA 1: CACCCGUGCAAAAUUGCAGGGGUCUAAAACGACCUGAAUAUUUCAGAUCAAA
RNA 2: GGGAAUGGAUCCACAUCUACGAAUUCGUUUUUGAUCUGAAAUAUUCAGAGUGCUGCAGAUCGGAAGAGCACACGU
- Kd: 49 ± 7 nM

B16: target 3 C6U,C16U (mixed)
RNA 1: CACCCGUGCAAAAUUGCAGGGGUCUAAAACGACCUGAAUAUUUCAGAUCAAA
RNA 2: GGGAAUGGAUCCACAUCUACGAAUUCGUUUUUGAUUUGAAAUAUUUAGGUCUGCAGAUCGGAAGAGCACACGU
- Kd: 84.5 ± 20 nM

B17: target 3 insG 3' of 22,insA 3' of 22 (mixed)
RNA 1: CACCCGUGCAAAAUUGCAGGGGUCUAAAACGACCUGAAUAUUUCAGAUCAAA
RNA 2: GGGAAUGGAUCCACAUCUACGAAUUCGUUUGAUUGAUCUGAAAUAUUCAGGUCUGCAGAUCGGAAGAGCACACGU
- Kd: 41.5 ± 4.5 nM

B18: target 3 insC 3' of 4,insA 3' of 4 (mixed)
RNA 1: CACCCGUGCAAAAUUGCAGGGGUCUAAAACGACCUGAAUAUUUCAGAUCAAA
RNA 2: GGGAAUGGAUCCACAUCUACGAAUUCGUUUUUGAUCUGAAAUAUUCAGCAGUCUGCAGAUCGGAAGAGCACACGU
- Kd: 21.8 ± 2.15 nM

B19: target 3 insU 3' of 3,insU 3' of 1 (mixed)
RNA 1: CACCCGUGCAAAAUUGCAGGGGUCUAAAACGACCUGAAUAUUUCAGAUCAAA
RNA 2: GGGAAUGGAUCCACAUCUACGAAUUCGUUUUUGAUCUGAAAUAUUCAGGUUCUUGCAGAUCGGAAGAGCACACGU
- Kd: 96 ± 24.5 nM

B20: target 3 insC 3' of 5,insU 3' of 3 (mixed)
RNA 1: CACCCGUGCAAAAUUGCAGGGGUCUAAAACGACCUGAAUAUUUCAGAUCAAA
RNA 2: GGGAAUGGAUCCACAUCUACGAAUUCGUUUUUGAUCUGAAAUAUUCACGGUUCUGCAGAUCGGAAGAGCACACGU
- Kd: 7.75 ± 0.6 nM

B21: target 3 U7G (mixed)
RNA 1: CACCCGUGCAAAAUUGCAGGGGUCUAAAACGACCUGAAUAUUUCAGAUCAAA
RNA 2: GGGAAUGGAUCCACAUCUACGAAUUCGUUUUUGAUCUGAAAUAUGCAGGUCUGCAGAUCGGAAGAGCACACGU
- Kd: 47 ± 8 nM

B22: target 3 insU 3' of 22,insA 3' of 4 (mixed)
RNA 1: CACCCGUGCAAAAUUGCAGGGGUCUAAAACGACCUGAAUAUUUCAGAUCAAA
RNA 2: GGGAAUGGAUCCACAUCUACGAAUUCGUUUUUUGAUCUGAAAUAUUCAGAGUCUGCAGAUCGGAAGAGCACACGU
- Kd: 69.5 ± 15.5 nM

B23: target 3 complement block 1-7 (mixed)
RNA 1: CACCCGUGCAAAAUUGCAGGGGUCUAAAACGACCUGAAUAUUUCAGAUCAAA
RNA 2: GGGAAUGGAUCCACAUCUACGAAUUCGUUUUUGAUCUGAAAUAUAGUCCAGUGCAGAUCGGAAGAGCACACGU
- Kd: 57 ± 8.5 nM

B24: target 3 insU 3' of 3,insA 3' of 1 (mixed)
RNA 1: CACCCGUGCAAAAUUGCAGGGGUCUAAAACGACCUGAAUAUUUCAGAUCAAA
RNA 2: GGGAAUGGAUCCACAUCUACGAAUUCGUUUUUGAUCUGAAAUAUUCAGGUUCAUGCAGAUCGGAAGAGCACACGU
- Kd: 76.5 ± 19.5 nM

B25: target 1 insC 3' of 18,insA 3' of 7 (mixed)
RNA 1: CACCCGUGCAAAAAUGCAGGGGUCUAAAACUGAGCGGAUAACCUCUCUAUGG
RNA 2: GGGAAUGGAUCCACAUCUACGAAUUCGUACCAUACGAGAGGUUAUCACGCUCACCGAGAUCGGAAGAGCACACGU
- Kd: 29 ± 1.6 nM

B26: target 1 insC 3' of 13,insA 3' of 13 (mixed)
RNA 1: CACCCGUGCAAAAAUGCAGGGGUCUAAAACUGAGCGGAUAACCUCUCUAUGG
RNA 2: GGGAAUGGAUCCACAUCUACGAAUUCGUACCAUAGAGAGCAGUUAUCCGCUCACCGAGAUCGGAAGAGCACACGU
- Kd: 17.2 ± 1.6 nM

B27: target 1 insU 3' of 14,insU 3' of 9 (mixed)
RNA 1: CACCCGUGCAAAAAUGCAGGGGUCUAAAACUGAGCGGAUAACCUCUCUAUGG
RNA 2: GGGAAUGGAUCCACAUCUACGAAUUCGUACCAUAGAGAUGGUUAUUCCGCUCACCGAGAUCGGAAGAGCACACGU
- Kd: 52 ± 9 nM

B28: target 1 insC 3' of 8,insA 3' of 8 (mixed)
RNA 1: CACCCGUGCAAAAAUGCAGGGGUCUAAAACUGAGCGGAUAACCUCUCUAUGG
RNA 2: GGGAAUGGAUCCACAUCUACGAAUUCGUACCAUAGAGAGGUUAUCACCGCUCACCGAGAUCGGAAGAGCACACGU
- Kd: 9.9 ± 0.5 nM
